From patent US20160299151 come the findings set out here.

One data set concerns the target T1, L-alanine-L-glutamine.
T1 chain: AQ

Another data set has as its target T2, L-glycine-L-glutamine.
T2 chain: GQ

B1: holo-BpsA (BpsA pre-activated by Sfp as in Example 1), His6-tagged recombinant polypeptide (protein)
chain: MTLQETSVLEPTLQGTTTLPGLLAQRVAEHPEAIAVAYRDDKLTFRELASRSAALADYLEHLGVSADDCVGLFVEPSIDLMVGAWGILNAGAAYLPLSPEYPEDRLRYMIENSETKIILAQQRLVSRLRELAPKDVTIVTLRESEAFVRPEGTEAPAARSARPDTLAYVIYTSGSTGKPKGVMIEHRSIVNQLGWLRETYAIDRSKVILQKTPMSFDAAQWEILSPANGATVVMGAPGVYADPEGLIETIVKHNVTTLQCVPTLLQGLIDTEKFPECVSLQQIFSGGEALSRLLAIQTTQEMPGRALINVYGPTETTINSSSFPVDPADLDEGPQSISIGSPVHGTTYHILDKETLKPVGVGEIGELYIGGIQLARGYLHRDDLTAERFLEIELEEGAEPVRLYKTGDLGQWNNDGTVQFAGRADNQVKLRGYRVELDEISLAIENHDWVRNAAVIVKNDGRTGFQNLIACIELSEKEAALMDQGNHGSHHASKKSKLQVKAQLSNPGLRDDAELAARPAFDLEGAEPTPEQRARVFARKTYRFYEGGAVTQADLLGLLGATVTAGYSRKAADLAPAELGQILRWFGQYISEERLLPKYGYASPGALYATQMYFELEGVGGLKPGYYYYQPVRHQLVLISEREATGKATAQIHFIGKKSGIEPVYKNNILEVLEIETGHMVGLFEQILPAYGLDIHDRAYEPAVKDLLDVADEDYYLGTFELVPHAGARDDQAEVYVQTHGGKVAGLPEGQYRYENGELTRFSDDIVLKKHVIAINQSVYQAASFGISVYSRAEEEWLKYITLGKKLQHLMMNGLNLGFMSSGYSSKTGNPLPASRRMDAVLGANGVDSAPMYFFVGGRISDEQIGHEGMREDSVHMRGPAELIRDDLVSFLPDYMIPNRVVVFDRLPLSANGKIDVKALAASDQVNAELVERPFVAPRTETEKEIAAVWEKALRRENASVQDDFFESGGNSLIAVGLVRELNARLGVSLPLQSVLESPTIEKLARRLEREVAQESSRFVRLHAETGKARPVICWPGLGGYPMNLRSLAGEIGLGRSFYGVQSYGINEGETPYETITEMAKKDIEALKEIQPAGPYTLWGYSFGARVAFETAYQLEQAGEKVDNLFLIAPGSPKVRAENGKVWGREASFANRGYTTILFSVFTGTISGPDLDRCLETVTDEASFAEFISELKGIDVDLARRIISVVGQTYEFEYSFHELAERTLQAPISIFKAVGDDYSFLENSSGYSAEPPTVIDLDADHYSLLREDIGELVKHIRYLLGE
On to B1, for which the “blue pigment formation (A590 after resuspension in DMSO) after 72 hours at 25 C with 4 mM substrate” value is “In each case except the no substrate control, blue pigment formation was observed, suggesting that an indigoidine like product had indeed been formed” with L-alanine-L-glutamine and “In each case except the no substrate control, blue pigment formation was observed, suggesting that an indigoidine like product had indeed been formed” with L-glycine-L-glutamine.
